{
  "source": "paper PMC3386213",
  "about": "(Molecular Biology of the Cell, 2012)",
  "target": "the molecule itself",
  "experiment": "cross-linking",
  "data": [
    {"protein": "HA-tagged KCTD6 N-terminal BTB domain (domain or fragment) MDNGDWGYMMTDPVTLNVGGHLYTTSLTTLTRYPDSMLGAMFGGDFPTARDPQGNYFIDRDGPLFRYVLNFLRTSELTLPLDFKEFDLLRKEADFYQIEPLIQCLNDPKPLYPMDTFEEVVELSSTRKLSKYSNPVAVIITQLTITT", "values": [
      {"measurement": "stoichiometry N", "value": 2}
    ]}
  ]
}
